{
  "source": "patent US20150175665A1",
  "about": "(IPSEN PHARMA S A S, published 2015)",
  "target": "T1, human recombinant GIP receptor (human, UniProt P48546 22-466)",
  "T1 construct": "whole, on cells; Assayed as washed membranes of CHO-K1 cells expressing the receptor; also called hGIP receptor",
  "T1 sequence (looked up)": "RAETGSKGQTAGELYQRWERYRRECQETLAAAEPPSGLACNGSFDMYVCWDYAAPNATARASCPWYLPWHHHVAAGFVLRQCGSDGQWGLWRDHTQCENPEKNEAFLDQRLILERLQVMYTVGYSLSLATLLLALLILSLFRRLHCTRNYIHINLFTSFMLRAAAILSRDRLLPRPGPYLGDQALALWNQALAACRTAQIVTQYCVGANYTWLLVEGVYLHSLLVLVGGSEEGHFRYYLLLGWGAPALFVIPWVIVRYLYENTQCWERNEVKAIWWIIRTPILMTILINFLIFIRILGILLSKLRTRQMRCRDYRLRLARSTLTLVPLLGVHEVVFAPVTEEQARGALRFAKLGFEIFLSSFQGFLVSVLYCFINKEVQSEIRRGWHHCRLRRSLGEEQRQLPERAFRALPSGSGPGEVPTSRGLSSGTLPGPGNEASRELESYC",
  "assay": "displacement of [125I]GIP, membranes of CHO-K1 cells expressing human GIP receptor",
  "method": "Membranes for in vitro receptor binding assays were prepared by homogenizing the CHO—K1 clonal cells expressing the human recombinant GIP receptor, with a Brinkman Polytron (setting 6, 15 sec), in ice-cold 50 mM Tris-HCl and then subjected to two centrifugations at 39,000 g for 10 minutes, with a resuspension in fresh buffer in between. For the assay, aliquots of the washed membrane preparations were incubated (100 minutes at 25° C. with 0.05 nM [¹²⁵1]GIP (2200 Ci/mmol) in 50 mM Tris-HCl, 0.1 mg/ml bacitracin, and 0.1% BSA. The final assay volume was 0.5 ml. The incubations were terminated by rapid filtration through GF/C filters (pre-soaked in 0.5% polyethylenimine) using a Brandel filtration manifold. Each tube and filter were then washed three times with 5-ml aliquots of ice-cold buffer.\nSpecific binding was defined as the total radioligand bound minus that bound in the presence of 1000 nM GIP.",
  "note": "[ ]: non-standard residue; d: D form. The star is where a group is joined. Desaminotyrosyl = O=C(CCc1ccc(O)cc1)*; Hyp = O=C(O)[C@@H]1C[C@@H](O)CN1; Pip = O=C(O)[C@@H]1CCCCN1; Ac6c = NC1(C(=O)O)CCCCC1",
  "data": [
    {"binder": "XXEGTFISDYSIAXDKIHQQDFVNWLLAQK (4Hppa at 1; Aib at 2; Nle at 14; C-terminal amide)", "note": "[(4Hppa^1, Aib^2, Nle^14)hGIP(1-30)-NH2]", "values": [
      {"measurement": "Ki", "value": 2.95, "unit": "nM"}
    ]},
    {"binder": "[Desaminotyrosyl]A[Hyp]GTF[Ac6c]SDYSIAMDKIHQQDFVNWLLAQKGKKNDWKHNITQ-OH", "note": "[(4Hppa^1, 4Hyp^3, A6c^7)hGIP(1-42)-OH]", "values": [
      {"measurement": "Ki", "value": 251, "unit": "nM"}
    ]},
    {"binder": "XXEGTFISDYSIAMDKIHQQDFVNWLLAQK (4Hppa at 1; Aib at 2; C-terminal amide)", "note": "[(4Hppa^1, Aib^2)hGIP(1-30)-NH2]", "values": [
      {"measurement": "Ki", "value": 1.58, "unit": "nM"}
    ]},
    {"binder": "[Desaminotyrosyl]A[Pip]GTF[Ac6c]SDYSIAMDKIHQQDFVNWLLAQKGKKNDWKHNITQ-OH", "note": "[(4Hppa^1, hPro^3, A6c^7)hGIP(1-42)-OH]", "values": [
      {"measurement": "Ki", "value": 707, "unit": "nM"}
    ]},
    {"binder": "XXEGTFISDYXIAMDKIHQQDFVNWLLAQKGKKNDWKHNITQH (7HO-Tic at 1; Aib at 2; A5c at 11)", "note": "[(7HO-Tic^1, Aib^2, A5c^11, His^43)hGIP(1-43)-OH]", "values": [
      {"measurement": "Ki", "value": 4.82, "unit": "nM"}
    ]},
    {"binder": "FXEGTFISDYXIAMDKIHQQDFVNWLLAQKGKKNDWKHNITQH (4CN-Phe at 1; Aib at 2; A5c at 11)", "note": "[(4CN-Phe^1, Aib^2, A5c^11, His^43)hGIP(1-43)-OH]", "values": [
      {"measurement": "Ki", "value": 5.12, "unit": "nM"}
    ]},
    {"binder": "XXEGTFISDYXIAMDKIHQQDFVNWLLAQKGKKNDWKHNITQH (hTyr at 1; Aib at 2; A5c at 11)", "note": "[(hTyr^1, Aib^2, A5c^11, His^43)hGIP(1-43)-OH]", "values": [
      {"measurement": "Ki", "value": 9.42, "unit": "nM"}
    ]}
  ]
}
